Data: US20240294646A1

Tests used:
[1] = molecular target: FcγRIIb soluble extracellular domain with C-terminal 10xHis tag (UniProt P31994); assay: SPR; IIb-Fold/IIaR-Fold (FcγRIIb against FcγRIIaR)
[2] = molecular target: FcγRIIb soluble extracellular domain with C-terminal 10xHis tag (UniProt P31994); assay: SPR; IIb selectivity of variant / that of control v27294
[3] = molecular target: FcγRIIaR soluble extracellular domain with C-terminal 10xHis tag (UniProt P12318); assay: SPR, OAA captured on HER2, receptor in solution; KD(WT v16463)/KD(variant)
[4] = molecular target: FcγRIIb soluble extracellular domain with C-terminal 10xHis tag (UniProt P31994); assay: as above
[5] = molecular target: FcγRIIb soluble extracellular domain with C-terminal 10xHis tag (UniProt P31994); assay: SPR, OAA captured on HER2, receptor in solution; KD(control v27294)/KD(variant)
FcγRIIaR [6] = molecular target: FcγRIIaR (UniProt P12318); assay: SPR imaging (IBIS MX96), antibody spotted on chip, soluble receptor as analyte, kinetic fit, 25 C, pH 7.4
Target sequence in this assay (P12318 34-217 H167R limits assumed): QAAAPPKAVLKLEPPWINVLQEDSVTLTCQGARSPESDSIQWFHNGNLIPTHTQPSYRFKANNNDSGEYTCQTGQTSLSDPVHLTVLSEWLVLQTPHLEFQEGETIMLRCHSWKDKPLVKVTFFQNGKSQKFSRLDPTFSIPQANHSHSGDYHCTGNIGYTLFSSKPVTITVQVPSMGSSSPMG

C1q (human) = C1q (human) (UniProt P02745); assay: cell-based or functional assay
[7] = molecular target: Soluble FcγRIIaR extracellular domain with C-terminal 10xHis tag (UniProt P12318); assay: SPR (Biacore 4000); variant captured on HER2, receptor in solution
[8] = molecular target: Soluble FcγRIIb extracellular domain with C-terminal 10xHis tag (UniProt P31994); assay: as above
FcγRIIb [9] = molecular target: FcγRIIb (UniProt P31994); assay: SPR (Protocol 1); IIb-Fold over IIaR-Fold
FcγRIIb [10] = molecular target: FcγRIIb (UniProt P31994); assay: SPR (Protocol 1); FcγRIIb ratio over FcγRIIaR ratio
FcγRIIaR [11] = molecular target: FcγRIIaR (UniProt P12318); assay: SPR (Protocol 1), one-armed antibody captured on HER2, receptor as analyte; ratio to wild-type
Target sequence in this assay (P12318 34-217): as the sequence (P12318 34-217 H167R limits assumed) above, with R134H counted along it

FcγRIIb [12] = molecular target: FcγRIIb (UniProt P31994); assay: as above
FcγRIIaR [13] = molecular target: FcγRIIaR (UniProt P12318); assay: SPR (Protocol 1), one-armed antibody captured on HER2, receptor as analyte; fold over wild-type
Target sequence in this assay (P12318 34-217): as the sequence (P12318 34-217 H167R limits assumed) above, with R134H counted along it

FcγRIIb [14] = molecular target: FcγRIIb (UniProt P31994); assay: as above
[15] = molecular target: Soluble FcγRIIaR extracellular domain with C-terminal 10xHis tag (UniProt P12318); assay: SPR, antibody captured on immobilised HER2, soluble receptor as analyte
[16] = molecular target: Soluble FcγRIIb extracellular domain with C-terminal 10xHis tag (UniProt P31994); assay: as above
[17] = molecular target: Soluble FcγRIIb extracellular domain with C-terminal 10×His tag (UniProt P31994); assay: SPR (Protocol 2); ratio of FcγRIIb fold to FcγRIIaR fold over wild-type
[18] = molecular target: Soluble FcγRIIaR extracellular domain with C-terminal 10×His tag (UniProt P12318); assay: SPR (Protocol 2): one-armed antibody captured on immobilised HER2, soluble receptor as analyte; fold over wild-type
[19] = molecular target: Soluble FcγRIIb extracellular domain with C-terminal 10×His tag (UniProt P31994); assay: as above

Chain of C1q (human) (P02745 23-245 limits assumed, chain 1 of 3): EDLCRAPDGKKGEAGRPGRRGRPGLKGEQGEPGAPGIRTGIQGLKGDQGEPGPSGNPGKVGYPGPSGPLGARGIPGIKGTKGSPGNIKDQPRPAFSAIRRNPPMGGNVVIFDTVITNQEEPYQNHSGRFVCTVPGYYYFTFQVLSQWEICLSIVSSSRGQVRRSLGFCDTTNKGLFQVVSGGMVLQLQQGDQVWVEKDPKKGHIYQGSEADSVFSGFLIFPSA
Chain of C1q (human) (P02746 28-253 limits assumed, chain 2 of 3, further chain): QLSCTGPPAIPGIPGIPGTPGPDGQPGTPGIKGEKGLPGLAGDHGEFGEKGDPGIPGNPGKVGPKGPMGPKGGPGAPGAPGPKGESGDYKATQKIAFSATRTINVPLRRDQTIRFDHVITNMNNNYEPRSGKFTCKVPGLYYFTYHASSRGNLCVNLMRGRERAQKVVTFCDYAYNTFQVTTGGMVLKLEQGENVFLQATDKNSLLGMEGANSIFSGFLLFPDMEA
Chain of C1q (human) (P02747 29-245 limits assumed, chain 3 of 3, further chain): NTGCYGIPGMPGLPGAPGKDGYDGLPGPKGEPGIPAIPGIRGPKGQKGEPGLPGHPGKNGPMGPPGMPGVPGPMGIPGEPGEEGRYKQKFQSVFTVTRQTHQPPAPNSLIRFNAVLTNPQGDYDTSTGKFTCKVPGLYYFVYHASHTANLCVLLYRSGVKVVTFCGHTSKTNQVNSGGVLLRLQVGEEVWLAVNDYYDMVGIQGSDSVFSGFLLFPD
Chain of FcγRIIb (P31994 43-217 limits assumed): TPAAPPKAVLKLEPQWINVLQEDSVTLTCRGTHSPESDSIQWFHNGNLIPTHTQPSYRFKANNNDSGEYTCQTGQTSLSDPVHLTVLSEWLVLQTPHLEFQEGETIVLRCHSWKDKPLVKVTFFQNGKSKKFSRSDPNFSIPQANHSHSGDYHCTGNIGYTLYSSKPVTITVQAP
Chain of FcγRIIaR soluble extracellular domain with C-terminal 10xHis tag (P12318 other isoform, or with tags, fused parts or gaps): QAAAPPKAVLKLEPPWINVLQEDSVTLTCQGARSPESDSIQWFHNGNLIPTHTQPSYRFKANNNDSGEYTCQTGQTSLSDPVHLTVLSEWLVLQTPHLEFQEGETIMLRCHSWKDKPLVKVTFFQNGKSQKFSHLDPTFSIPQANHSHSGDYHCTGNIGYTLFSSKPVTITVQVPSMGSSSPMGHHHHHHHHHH
Chain of Soluble FcγRIIaR extracellular domain with C-terminal 10xHis tag (P12318 other isoform, or with tags, fused parts or gaps): as above
Chain of Soluble FcγRIIaR extracellular domain with C-terminal 10×His tag (P12318 other isoform, or with tags, fused parts or gaps): as above
Chain of Soluble FcγRIIb extracellular domain with C-terminal 10xHis tag (P31994 other isoform, or with tags, fused parts or gaps): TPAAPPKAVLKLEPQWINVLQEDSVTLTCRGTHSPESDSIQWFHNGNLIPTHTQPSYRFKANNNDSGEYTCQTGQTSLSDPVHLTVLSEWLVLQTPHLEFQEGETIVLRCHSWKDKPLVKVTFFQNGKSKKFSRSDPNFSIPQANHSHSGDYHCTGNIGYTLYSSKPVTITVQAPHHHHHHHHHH
Chain of FcγRIIb soluble extracellular domain with C-terminal 10xHis tag (P31994 other isoform, or with tags, fused parts or gaps limits assumed): as the sequence (P31994 other isoform, or with tags, fused parts or gaps) above
Chain of Soluble FcγRIIb extracellular domain with C-terminal 10×His tag (P31994 other isoform, or with tags, fused parts or gaps): as above

In the case of “Variant 26939 (A_L234F_G236N_H268Q_A327G_A330K_P331S / B_G236D_G237N_S239D_V266L_S267A_H268D) (antibody)”, the IIb Selectivity [1] is reported as 19.7 fold, the IIb Selectivity Improvement wrt Control [2] is reported as 1.5 fold and the IIaR-fold [3] is reported as 27.5 fold. The IIb-Fold [4] was 542 fold and the IIb-Fold wrt Control [5] was 5.8 fold.
With “Variant 26931 (A_L234F_G236N_H268Q_A327G_A330K_P331S / B_G236D_G237L_S239D_V266L_S267A_H268D) (antibody)” the IIb Selectivity [1] was 20.9 fold, the IIb Selectivity Improvement wrt Control [2] was 1.6 fold and the IIaR-fold [3] was 14.2 fold. For the same substance, the IIb-Fold [4] was 296 fold and the IIb-Fold wrt Control [5] was 3.2 fold.
“Variant 26593 (A_L234F_L235D_G236N_H268Q_A327G_A330K_P331S / B_G236D_S239D_V266L_S267A_H268D) (antibody)” gave an IIb Selectivity [1] of 26.3 fold, an IIaR-fold [3] of 2.5 fold and an IIb-Fold [4] of 65.2 fold. It also gave an IIb-Fold wrt Control [5] of 0.7 fold.
“v12 (IIb-specific comparator, symmetrical E233D_G237D_P238D_H268D_P271G_A330R), anti-CD40 (Chi Lob 7/4) full-size antibody” showed a Kd (FcγRIIaR [6]) of 390 nM.
For “anti-CD40 full-size antibody (Chi Lob 7/4 Fab) with control Fc v12 (symmetrical E233D_G237D_P238D_H268D_P271G_A330R)”, the CDC assay on Ramos cells: Lysis (%) Mean, at highest test antibody concentration (C1q (human)) was 7.28%.
For “v26129 (A_N236G_strat1), one-armed trastuzumab antibody”, the Kd [7] was 8.9 nM and the Kd [8] was 4.6 nM.
Substance “variant 16533, one-armed trastuzumab antibody (Scaffold 2), S267I in both chains” has an IIb/IIaR Selectivity (FcγRIIb [9]) of 2.75, a Selectivity IIb/IIaR (FcγRIIb [10]) of 2.8 and a Ka,mut/Ka,WT (FcγRIIaR [11]) of 0.98. For the same substance, the Ka,mut/Ka,WT (FcγRIIb [12]) was 2.69, the IIaR-Fold (fold affinity over wild-type) (FcγRIIaR [13]) was 0.98 fold and the IIb-Fold (fold affinity over wild-type) (FcγRIIb [14]) was 2.69 fold.
Substance “v26128 (A_L235P_strat1), one-armed trastuzumab antibody” has a Kd [7] of 18 nM and a Kd [8] of 6.5 nM.
With “v26131 (A_N236V_strat1), one-armed trastuzumab antibody” the Kd [7] was 8 nM and the Kd [8] was 3 nM.
“Variant 27294, Launching Module 2 (A_L234F_G236N_H268Q_A327G_A330K_P331S / B_G236D_S239D_V266L_S267A_H268D), one-armed trastuzumab antibody” showed a Kd [15] of 44 nM and a Kd [16] of 16 nM.
With “anti-CD40 full-size antibody (Chi Lob 7/4 Fab) with wild-type CH2, v21653” the CDC assay on Ramos cells: Lysis (%) Mean, at highest test antibody concentration (C1q (human)) was 77.8% and the CDC assay on Ramos cells: Potency (ng/mL) Mean, antibody concentration above which >20% cell lysis was achieved (C1q (human)) was 67.7 ng/mL.
For “variant 16572, one-armed trastuzumab antibody (Scaffold 2), L234F in both chains”, the IIb/IIaR Selectivity (FcγRIIb [9]) was 2.48, the Selectivity IIb/IIaR (FcγRIIb [10]) was 2.5 and the Ka,mut/Ka,WT (FcγRIIaR [11]) was 0.21. It also gave a Ka,mut/Ka,WT (FcγRIIb [12]) of 0.52, an IIaR-Fold (fold affinity over wild-type) (FcγRIIaR [13]) of 0.21 fold and an IIb-Fold (fold affinity over wild-type) (FcγRIIb [14]) of 0.52 fold.
For “anti-CD40 full-size antibody (Chi Lob 7/4 Fab) with control Fc SELF (S267E_L328F)”, the CDC assay on Ramos cells: Lysis (%) Mean, at highest test antibody concentration (C1q (human)) was 78.2%, the CDC assay on Ramos cells: Normalized Potency Mean (C1q (human)) was 93.6 % of WT and the CDC assay on Ramos cells: Potency (ng/mL) Mean, antibody concentration above which >20% cell lysis was achieved (C1q (human)) was 166 ng/mL.
In the case of “v26132 (A_N236L_strat1), one-armed trastuzumab antibody”, the Kd [7] is reported as 7.3 nM and the Kd [8] is reported as 2.7 nM.
Work on “Variant 26847 (A_L234F_G236N_H268Q_A327G_A330T_P331S / B_G236D_S239D_V266L_S267A_H268D) (antibody)” yielded an IIb Selectivity [1] of 22.6 fold, an IIb Selectivity Improvement wrt Control [2] of 1.7 fold and an IIaR-fold [3] of 2.4 fold. It also gave an IIb-Fold [4] of 53.3 fold and an IIb-Fold wrt Control [5] of 0.6 fold.
In the case of “v26130 (A_N236A_strat1), one-armed trastuzumab antibody”, the Kd [7] is reported as 12 nM and the Kd [8] is reported as 4 nM.
“Variant 26940 (A_L234F_G236N_H268Q_A327G_A330K_P331S / B_G236D_G237D_S239D_V266L_S267A_H268D) (antibody)” showed an IIb Selectivity [1] of 23.3 fold, an IIb Selectivity Improvement wrt Control [2] of 1.7 fold and an IIaR-fold [3] of 13.1 fold. For the same substance, the IIb-Fold [4] was 304 fold and the IIb-Fold wrt Control [5] was 3.3 fold.
“Variant 22116 (one-armed trastuzumab antibody, heterodimeric IgG1 Fc; A: L234D_G236N_S267A_K326D / B: G236D_S239D_V266L_S267A_H268D_K326D)” showed an IIb/IIaR Selectivity (IIb-Fold/IIaR-Fold) [17] of 12.1, an IIaR-fold (fold change in affinity over wild-type) [18] of 2.6 fold and an IIb-fold (fold change in affinity over wild-type) [19] of 31.9 fold.
Substance “anti-CD40 full-size antibody (Chi Lob 7/4 Fab) with Fc negative variant (L234A, L235A, D265S)” has a CDC assay on Ramos cells: Lysis (%) Mean, at highest test antibody concentration (C1q (human)) of 5.13%.
“Variant 26663 (A_L234F_G236N_S267A_H268Q_A327G_A330K_P331S / B_G236D_S239D_V266L_S267A_H268D) (antibody)” showed an IIb Selectivity [1] of 23.6 fold, an IIb Selectivity Improvement wrt Control [2] of 1.8 fold and an IIaR-fold [3] of 2.6 fold. For the same substance, the IIb-Fold [4] was 62.1 fold and the IIb-Fold wrt Control [5] was 0.7 fold.
“variant 16585, one-armed trastuzumab antibody (Scaffold 2), L234D in both chains” was tested, and the IIb/IIaR Selectivity (FcγRIIb [9]) was 2.7, the Selectivity IIb/IIaR (FcγRIIb [10]) was 2.7 and the Ka,mut/Ka,WT (FcγRIIaR [11]) was 0.17. It also gave a Ka,mut/Ka,WT (FcγRIIb [12]) of 0.47, an IIaR-Fold (fold affinity over wild-type) (FcγRIIaR [13]) of 0.17 fold and an IIb-Fold (fold affinity over wild-type) (FcγRIIb [14]) of 0.47 fold.
In the case of “variant 16490, one-armed trastuzumab antibody (Scaffold 2), G236D in both chains”, the IIb/IIaR Selectivity (FcγRIIb [9]) is reported as 2.75, the Selectivity IIb/IIaR (FcγRIIb [10]) is reported as 2.7 and the Ka,mut/Ka,WT (FcγRIIaR [11]) is reported as 0.81. For the same substance, the Ka,mut/Ka,WT (FcγRIIb [12]) was 2.22, the IIaR-Fold (fold affinity over wild-type) (FcγRIIaR [13]) was 0.81 fold and the IIb-Fold (fold affinity over wild-type) (FcγRIIb [14]) was 2.22 fold.
“variant 16578, one-armed trastuzumab antibody (Scaffold 2), A327G_A330S_P331S_L234F_H268Q_K274Q in both chains” gave an IIb/IIaR Selectivity (FcγRIIb [9]) of 4.35, a Selectivity IIb/IIaR (FcγRIIb [10]) of 4.4 and a Ka,mut/Ka,WT (FcγRIIaR [11]) of 0.47. For the same substance, the Ka,mut/Ka,WT (FcγRIIb [12]) was 2.03, the IIaR-Fold (fold affinity over wild-type) (FcγRIIaR [13]) was 0.47 fold and the IIb-Fold (fold affinity over wild-type) (FcγRIIb [14]) was 2.03 fold.
“Variant 22119 (one-armed trastuzumab antibody, heterodimeric IgG1 Fc; A: L234F_G236N_H268Q_K274Q_A327G_A330K_P331S / B: L234F_G236D_S239D_V266L_S267I_H268D_K274Q_A327G_A330S_P331S)” showed an IIb/IIaR Selectivity (IIb-Fold/IIaR-Fold) [17] of 7.9, an IIaR-fold (fold change in affinity over wild-type) [18] of 0.8 fold and an IIb-fold (fold change in affinity over wild-type) [19] of 6.2 fold.
In the case of “one-armed trastuzumab antibody (Scaffold 2), chain A L235D, chain B H268Q_K274Q”, the Selectivity IIb/IIaR (FcγRIIb [10]) is reported as 2.2, the Ka,mut/Ka,WT (FcγRIIaR [11]) is reported as 1.03 and the Ka,mut/Ka,WT (FcγRIIb [12]) is reported as 2.24.
For “Variant 19540, Lead 3 (one-armed trastuzumab antibody, heterodimeric IgG1 Fc; A: L234D_G236N_S267A / B: G236D_S239D_V266L_S267A_H268D)”, the IIb/IIaR Selectivity (IIb-Fold/IIaR-Fold) [17] was 14, the IIaR-fold (fold change in affinity over wild-type) [18] was 1.8 fold and the IIb-fold (fold change in affinity over wild-type) [19] was 25.4 fold.
